# In the supplement of paper PMC12667976:
# ± gives the standard error.
# B1: library; numbered along this chain (parent)
# chain: MATDAALRRLLRLHRTEIAVAVDSAFPLLHALADHDVVPEDKFQETLHLKEKEGCPQAFHALLSWLLTQDSTAILDFWRVLFKDYNLERYGRLQPILDSFPKDVDLSQPRKGRKPPAVPKALVPPPRLPTKRKASEEARAAAPAALTPRGTASPGSQLKAKPPKKPESSAEQQRLPLGNGIQTMSASVQRAVAMSSGDVPGARGAVEGILIQQVFESGGSKKCIQVGGEFYTPSKFEDSGSGKNKARSSSGPKPLVRAKGAQGAAPGGGEARLGQQGSVPAPLALPSDPQLHQKNEDECAVCRDGGELICCDGCPRAFHLACLSPPLREIPSGTWRCSSCLQATVQEVQPRAEEPRPQEPPVETPLPPGLRSAGEEVRGPPGEPLAGMDTTLVYKHLPAPPSAAPLPGLDSSALHPLLCVGPEGQQNLAPGARCGVCGDGTDVLRCTHCAAAFHWRCHFPAGTSRPGTGLRCRSCSGDVTPAPVEGVLAPSPARLAPGPAKDDTASHEPALHRDDLESLLSEHTFDGILQWAIQSMARPAAPFPS
# Variants of: B1
# Experiment: AIRE transcriptional activation functional score (insulin promoter-GFP; nonsense median 0, synonymous median 1) (normalised score); higher = higher AIRE activity (more reporter activation)
# Conditions: with insulin promoter-GFP reporter in HEK293
# Outline: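 Functional scores come from comparing select with non-select enrichment of each variant and subtracting wild type. Codon-optimized AIRE NNN-codon libraries across three regions were integrated via Bxb1 recombinase into HEK293 landing-pad cells with an insulin core promoter-GFP reporter, and integrants sorted at day 7 were expanded 7 days before top 10% GFP and unselected populations were tile-sequenced. Variants needed 10 counts per million in non-select, and values were rescaled to nonsense median 0 and synonymous median 1 before averaging over biological replicates.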
row,Variant,AIRE transcriptional activation functional score
1,K501V,0.712 ± 0.39
2,K501I,0.714 ± 0.37
3,A138D,0.727 ± 0.48
4,R139Q,1.35 ± 0.3
5,N295C,1.01 ± 0.33
6,N295W,0.869 ± 0.029
7,P162F,1.37 ± 0.11
8,R149F,0.857 ± 0.42
9,P361F,1.18 ± 0.14
10,P361H,1.14 ± 0.1
11,P361N,0.778 ± 0.12
12,K120F,0.998 ± 0.34
13,I209P,0.35 ± 0.05
14,I209N,0.657 ± 0.3
15,R113V,0.537 ± 0.49
16,T68N,0.581 ± 0.61
17,P544R,0.52 ± 0.21
18,P544G,1.38 ± 0.087
19,P544H,0.559 ± 0.22
20,P544T,0.985 ± 0.49
21,G201C,1.03 ± 0.031

row,Variant,AIRE transcriptional activation functional score
1,E359W,1.24 ± 0.06
2,E359Y,1.11 ± 0.12
3,E359N,0.928 ± 0.13
4,L7Y,0.122 ± 0.12
5,G277K,1.22 ± 0.26
6,T390D,0.833 ± 0.089
7,E17W,-0.29 ± 0.14
8,E17R,-0.438 ± 0.75
9,E17Q,-0.406 ± 0.85
10,R351M,1.07 ± 0.031
11,W531R,-0.126 ± 0.31
12,G267V,1.12 ± 0.15
13,R378Y,0.657 ± 0.28
14,T524C,1.47 ± 0.16
15,A493M,1.19 ± 0.073
16,G204L,0.339 ± 0.34
17,R471P,0.89 ± 0.25
18,L273R,0.646 ± 0.2
19,A6I,0.395 ± 0.37
20,C457E,0.0401 ± 0.23
21,C457A,0.0339 ± 0.14

row,Variant,AIRE transcriptional activation functional score
1,L10N,-0.218 ± 0.44
2,I330Q,0.577 ± 0.11
3,A186K,0.646 ± 0.09
4,D34S,-0.594 ± 0.38
5,S250W,0.939 ± 0.071
6,S250F,1.13 ± 0.099
7,P384V,0.849 ± 0.1
8,A284G,1.03 ± 0.21
9,C223E,0.793 ± 0.14
10,C223P,0.562 ± 0.33
11,A482D,1.42 ± 0.057
12,A482Q,0.773 ± 0.13
13,R336Q,0.346 ± 0.19
14,P176L,1.6 ± 0.3
15,L529R,0.121 ± 0.14
16,L529F,0.323 ± 0.16
17,R15K,-1.95 ± 0.17
18,G408L,0.00278 ± 0.23
19,A246T,0.841 ± 0.41
20,E270C,1.08 ± 0.53
21,E270A,0.795 ± 0.25

row,Variant,AIRE transcriptional activation functional score
1,K221V,0.663 ± 0.27
2,P368H,1.18 ± 0.18
3,P368D,0.975 ± 0.089
4,P143L,1.11 ± 0.19
5,C437T,0.164 ± 0.18
6,C437R,0.0167 ± 0.12
7,G155K,0.662 ± 0.7
8,Q530C,-0.0453 ± 0.094
9,S24K,1.61 ± 0.099
10,E296D,0.711 ± 0.29
11,E296F,1.09 ± 0.11
12,K294L,0.857 ± 0.44
13,T468C,1.14 ± 0.24
14,T468A,1.03 ± 0.21
15,T468E,0.46 ± 0.12
16,G440S,1.16 ± 0.4
17,D312P,0.626 ± 0.25
18,A205L,0.428 ± 0.34
19,E40Q,0.577 ± 0.37
20,R513L,0.882 ± 0.31
